Measured values taken from publication PMC11252331.

How the values were obtained:
[1] = target: untagged ∆N∆PDZ HTRA1 R274Q used for NMR DOSY (human) (UniProt Q92743); assay: NMR DOSY; 100 µM HTRA1 alone, 50 mM potassium phosphate pH 6.7, 10% D2O, 25 °C
ΔN HTRA1 A252T (human) [2] = target: ΔN HTRA1 A252T (human) (UniProt Q92743); assay: cross-linking; 0.5 µM HTRA1, 50 mM NaPi, 50 mM NaCl pH 8.0, 37 °C, 0.5% glutaraldehyde 2 min; silver staining or Western blot; single proteins or mixtures
ΔN HTRA1 A252T (human) [3] = target: ΔN HTRA1 A252T (human) (UniProt Q92743); assay: SEC; analytical SEC, Agilent AdvanceBio SEC 300 Å column, 2x PBS, 10 µl of 10 mg/ml protein (273 µM monomer equivalent; A173T 6.5 mg/ml, 178 µM); single proteins or mixtures
ΔN HTRA1 A252T (human) [4] = target: ΔN HTRA1 A252T (human) (UniProt Q92743); assay: SEC-MALS; Superdex 200 Increase 10/300, 2x PBS, 56 µl of 10 mg/ml protein (273 µM monomer equivalent; A173T 6.5 mg/ml, 178 µM); single proteins or D174R-S328A + R274Q mixed at a 1:1 ratio
[5] = target: ΔN HTRA1 D174R-S328A (proteolytically inactive corrector variant) (human) (UniProt Q92743); assay: as above
[6] = target: ΔN HTRA1 wild type (human HTRA1 lacking the N-terminal IGFBP7-like fragment) (human) (UniProt Q92743); assay: native MS; binding experiments, 5 µM protein with VDAC2 peptide added at molar ratios, 200 mM ammonium acetate pH 6.8
[7] = target: ΔN HTRA1 wild type (human HTRA1 lacking the N-terminal IGFBP7-like fragment) (human) (UniProt Q92743); assay: cross-linking; 0.5 µM HTRA1, 50 mM NaPi, 50 mM NaCl pH 8.0, 37 °C, 0.5% glutaraldehyde 2 min; silver staining or Western blot; single proteins or mixtures
[8] = target: ΔN HTRA1 wild type (human HTRA1 lacking the N-terminal IGFBP7-like fragment) (human) (UniProt Q92743); assay: SEC; analytical SEC, Agilent AdvanceBio SEC 300 Å column, 2x PBS, 10 µl of 10 mg/ml protein (273 µM monomer equivalent; A173T 6.5 mg/ml, 178 µM); single proteins or mixtures
[9] = target: ΔN HTRA1 wild type (human HTRA1 lacking the N-terminal IGFBP7-like fragment) (human) (UniProt Q92743); assay: SEC-MALS; Superdex 200 Increase 10/300, 2x PBS, 56 µl of 10 mg/ml protein (273 µM monomer equivalent; A173T 6.5 mg/ml, 178 µM); single proteins or D174R-S328A + R274Q mixed at a 1:1 ratio
[10] = target: VDAC2 peptide (C-terminus of Voltage Dependent Anion-selective Channel isoform 2); assay: VDAC2 titration of cleavage rate of peptidic fluorescence-quenched substrate, fitted to the hyperbolic weak-binding equation; conditions: substrate 2 µM; HTRA1 wt 30 nM; R274Q 300 nM

untagged ∆N∆PDZ HTRA1 R274Q used for NMR DOSY (from UniProt Q92743 158-375) (domain or fragment)
stoichiometry N [1]: 3

ΔN HTRA1 A252T (from UniProt Q92743 158-480) (domain or fragment)
stoichiometry N (ΔN HTRA1 A252T (human) [2]): 3 | stoichiometry N (ΔN HTRA1 A252T (human) [3]): 3 | stoichiometry N (ΔN HTRA1 A252T (human) [4]): 3

ΔN HTRA1 D174R-S328A (proteolytically inactive corrector variant) (from UniProt Q92743 158-480) (domain or fragment)
stoichiometry N [5]: 3

ΔN HTRA1 wild type (human HTRA1 lacking the N-terminal IGFBP7-like fragment) (from UniProt Q92743 158-480) (domain or fragment)
stoichiometry N [6]: 3 | stoichiometry N [7]: 3 | stoichiometry N [8]: 3 | stoichiometry N [9]: 3

ΔN HTRA1 wild type (human HTRA1 lacking the N-terminal IGFBP7-like fragment) (from UniProt Q92743) R274Q
Kd [10]: 12.1 µM
